Laboratory results: patent publication US20070280945A1 (Regeneron, published 2007)

T1: hIL-6R-hFc (human, UniProt P08887 20-358)
T1 construct: also called dimeric hIL-6R; Dimer; not shown: human Fc (hFc)
T1 sequence: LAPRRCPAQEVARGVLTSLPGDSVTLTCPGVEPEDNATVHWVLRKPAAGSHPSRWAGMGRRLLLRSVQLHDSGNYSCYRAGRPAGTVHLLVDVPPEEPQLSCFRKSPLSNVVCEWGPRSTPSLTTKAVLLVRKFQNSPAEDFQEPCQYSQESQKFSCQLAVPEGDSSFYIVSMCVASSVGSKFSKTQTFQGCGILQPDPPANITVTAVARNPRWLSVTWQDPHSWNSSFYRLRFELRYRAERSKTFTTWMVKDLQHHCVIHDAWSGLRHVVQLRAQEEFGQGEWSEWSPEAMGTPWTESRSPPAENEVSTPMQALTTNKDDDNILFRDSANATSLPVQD

T2: recombinant hIL-6R protein, monomeric form (human, UniProt P08887 20-358)
T2 construct: also called monomeric hIL-6R; Human IL6R
T2 sequence: T1 sequence

T3: hIL-6R on hIL-6-responsive human cells (XG-1 myeloma line, HepG2 hepatoma line) (human, UniProt P08887 20-468)
T3 sequence (looked up): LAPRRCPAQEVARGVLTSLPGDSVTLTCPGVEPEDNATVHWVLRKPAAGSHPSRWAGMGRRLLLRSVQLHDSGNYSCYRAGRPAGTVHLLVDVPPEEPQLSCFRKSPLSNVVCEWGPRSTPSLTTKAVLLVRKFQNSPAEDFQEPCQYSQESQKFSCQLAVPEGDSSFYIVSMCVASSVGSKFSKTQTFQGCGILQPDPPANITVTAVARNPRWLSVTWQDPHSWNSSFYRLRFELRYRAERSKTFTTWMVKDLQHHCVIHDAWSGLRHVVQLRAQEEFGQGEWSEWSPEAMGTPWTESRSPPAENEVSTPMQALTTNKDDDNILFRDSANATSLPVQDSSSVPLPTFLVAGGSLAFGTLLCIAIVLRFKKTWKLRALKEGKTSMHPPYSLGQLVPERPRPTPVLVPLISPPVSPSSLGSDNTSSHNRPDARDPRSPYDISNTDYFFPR

T4: hIL-6R recombinant protein (plate-coated, Example 5) (human, UniProt P08887 20-358, limits assumed)
T4 construct: also called antigen
T4 sequence: T1 sequence

T5: Recombinant monkey monomeric IL-6R protein (Macaca fascicularis, extracellular domain) (Macaca fascicularis, UniProt P08887 21-330 (human entry))
T5 construct: also called Monkey IL6R; monkey IL-6R
T5 chain: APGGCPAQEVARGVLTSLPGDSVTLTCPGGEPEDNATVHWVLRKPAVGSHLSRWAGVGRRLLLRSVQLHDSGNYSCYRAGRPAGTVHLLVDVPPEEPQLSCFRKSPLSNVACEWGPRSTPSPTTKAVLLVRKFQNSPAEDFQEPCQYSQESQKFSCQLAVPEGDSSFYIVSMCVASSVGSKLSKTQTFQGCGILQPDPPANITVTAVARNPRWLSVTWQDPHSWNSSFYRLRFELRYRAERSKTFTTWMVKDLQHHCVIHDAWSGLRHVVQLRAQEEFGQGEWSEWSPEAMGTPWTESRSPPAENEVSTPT

B1: 248982-13-1-E5 (antibody, V domains shown)
VH: QVQLVQSGGDLVQPGRSLRLSCAASGFTFDDYAMHWVRQTPGKGLEWVSGISWNSGAIGYADSVKGRFTISRDNAKNSLYLQMNSLRAEDTALYYCTKEEVGATVDYFYFYGMDVWGQGTTVTVSS
VL: EIVMTQSPATLSLSPGERATLSCWASQSVSNYLAWYQQKPGQAPRLLIYDASNRATGIPARFSGSGSGTDFTLTISSLEPEDFAVYYCQQRSNWPTFGQGTKVEIK
B2: VQ8F11-21 (antibody, V domains shown)
VH: EVQLVESGGGLVQPGRSLRLSCAASRFTFDDYAMHWVRQAPGKGLEWVSGISWNSGRIGYADSVKGRFTISRDNAENSLFLQMNGLRAEDTALYYCAKGRDSFDIWGQGTMVTVSS
VL: DIQMTQSPSSVSASVGDRVTITCRASQGISSWLAWYQQKPGKAPKLLIYGASSLESGVPSRFSGSGSGTDFTLTISSLQPEDFASYYCQQANSFPYTFGQGTKLEIK
notes: Human variable regions with mouse constant region; also called VQ8F11-21 mIgG2a
B3: VQ8F11-21 modhIgG4 (antibody, V domains shown)
VH: B2 VH
VL: B2 VL
notes: Modified human IgG4 constant region; also called VQ8F11-21 modified human IgG4
B4: VV1G4-7 (antibody, IgG2a, V domains shown)
VH: QVQLVQSGAEVKEPGASVKVSCKASGYTFTSYDIIWVRQATGQGLEWMGWMNPNSGNTGYTQNLQGRVTLTRNTSITTVYMELSSLSSEDTAVYYCARDYSSHYYGLDVWGQGTTVTVSS
VL: DIQLTQSPSFLSTSIGDRVTITCWASQDISNYLAWYQQKPGKAPKLLIFVASTLQSGVPSRFSGSGSGTEFTLTISSLQPEDFATYYCQQFNSYPLTFGGGTKVEIK
notes: Human variable regions with mouse constant region

Columns and labels:
hIL-6R-hFc [1] = molecular target: T1, hIL-6R-hFc; experiment: SPR (BIAcore), captured antibody, dimeric hIL-6R
[2] = molecular target: T2, recombinant hIL-6R protein, monomeric …; experiment: SPR (BIAcore), captured antibody, monomeric hIL-6R
hIL-6R-hFc [3] = molecular target: T1, hIL-6R-hFc; experiment: competition ELISA: antibody premixed with serial dilutions of hIL-6R-hFc, free antibody detected on hIL-6R-hFc-coated plate
[4] = molecular target: T3, hIL-6R on hIL-6-responsive human cells …; experiment: cell-based or functional assay
[5] = molecular target: T3, hIL-6R on hIL-6-responsive human cells …; experiment: cell-based or functional assay; remark: listed apart in the source
[6] = molecular target: T2, recombinant hIL-6R protein, monomeric …; experiment: Kinexa solution-phase competition immunoassay, monomeric hIL-6R
[7] = molecular target: T4, hIL-6R recombinant protein …; experiment: SPR (BIAcore) competition on hIL-6R; competitor: control antibody
[8] = molecular target: T2, recombinant hIL-6R protein, monomeric …; experiment: SPR (BIAcore), captured mouse-IgG antibody, monomeric hIL-6R 1.56-12.5 nM
hIL-6R-hFc [9] = molecular target: T1, hIL-6R-hFc; experiment: SPR (BIAcore), antibody captured on anti-mouse IgG surface, dimeric hIL-6R
[10] = molecular target: T2, recombinant hIL-6R protein, monomeric …; experiment: SPR (BIAcore), antibody captured on anti-mouse IgG surface, monomeric hIL-6R
[11] = molecular target: T2, recombinant hIL-6R protein, monomeric …; experiment: SPR (BIAcore), captured mouse-IgG antibody, monomeric hIL-6R 1.56-12.5 nM; mIgG2a isotype
[12] = molecular target: T2, recombinant hIL-6R protein, monomeric …; experiment: SPR (BIAcore), antibody captured on goat anti-mouse Fc, monomeric IL-6R 1.25-40 nM injected
[13] = molecular target: T5, Recombinant monkey monomeric IL-6R …; experiment: as above
hIL-6R-hFc [14] = molecular target: T1, hIL-6R-hFc; experiment: SPR (BIAcore): hIL-6R-hFc captured, antibody injected, then 50 nM hIL-6; percent reduction in hIL-6 binding
hIL-6R-hFc [15] = molecular target: T1, hIL-6R-hFc; experiment: blocking ELISA: 100 pM hIL-6R-hFc premixed with varied antibody, free hIL-6R-hFc captured on hIL-6-coated plate
[16] = molecular target: T4, hIL-6R recombinant protein …; experiment: competition ELISA on hIL-6R-coated plate presaturated with competitor control antibody; test antibody 50 ng/ml
[17] = molecular target: T5, Recombinant monkey monomeric IL-6R …; experiment: SPR (BIAcore); reference: binding to human IL-6R; end of range tied to this antibody by Table 4 (0.143 against 0.051 nM)
[18] = molecular target: T2, recombinant hIL-6R protein, monomeric …; experiment: SPR (BIAcore), antibody captured on goat anti-human Fc, monomeric hIL-6R 1.56-12.5 nM
[19] = molecular target: T2, recombinant hIL-6R protein, monomeric …; experiment: SPR (BIAcore), antibody captured on goat anti-human Fc, monomeric hIL-6R 1.56-12.5 nM; modhIgG4 isotype
[20] = molecular target: T2, recombinant hIL-6R protein, monomeric …; experiment: SPR (BIAcore), captured antibody, monomeric hIL-6R; remark: listed apart in the source
[21] = molecular target: T5, Recombinant monkey monomeric IL-6R …; experiment: SPR (BIAcore), antibody captured on goat anti-mouse Fc, monomeric monkey IL-6R injected

Binder | IC50 (hIL-6R-hFc [3]) [nM] | HepG2/Stat3 Luciferase activity IC50 [4] [nM] | XG-1 cell proliferation Inhibition IC50 [4] [nM] | HepG2/STAT3 luciferase assay IC50 [5] [nM] | Kd [6] [nM] | % reduction of binding by control antibody [7] [%] | koff [8] [s⁻¹] | kon [8] [M⁻¹ s⁻¹] | Kd (hIL-6R-hFc [9]) [nM] | Kd [10] [nM] | Kd [12] [nM] | koff [12] [s⁻¹] | kon [12] [M⁻¹ s⁻¹] | hIL6/hIL6R Binding Inhibition (%) (hIL-6R-hFc [14]) | IC50 (hIL-6R-hFc [15]) [nM] | % reduction of binding by control antibody [16] [%] | other results
B1 | 0.36 |  |  |  |  |  |  |  |  |  |  |  |  |  |  |  | Kd (hIL-6R-hFc [1]): 0.785 nM; Kd [2]: 0.987 nM
B2 | 0.008 | 0.135 | 0.62 | 0.135 | 0.009 | 96 | 5.27e-05 | 786000 | 0.023 | 0.067 | 0.051 | 4.38e-05 | 851000 | 98 | 0.12 | 79 | Kd [11]: 0.067 nM; Kd [13]: 0.143 nM; koff [13]: 4.86e-05 s⁻¹; kon [13]: 339000 M⁻¹ s⁻¹; fold difference of KD, monkey against human receptor [17]: 3 fold
B3 |  |  |  | 0.249 |  |  |  |  |  |  |  |  |  |  |  |  | Kd [18]: 0.053 nM; kon [18]: 881000 M⁻¹ s⁻¹; koff [19]: 4.7e-05 s⁻¹
B4 | 0.041 | 0.578 | 1.8 | 0.578 | 0.197 | 12 | 7.66e-05 | 341000 | 0.07 | 0.225 | 0.24 | 6.18e-05 | 257000 | 34 | 1.1 | 3 | Kd [20]: 0.241 nM; Kd [8]: 0.225 nM; binding result [21]: no binding (tested: 1.25-40 nM)
